Assays:
purified protein [1] = substrate: O=CO; assay: purified protein; settings: 2 mM BV2+ fixed, formate 0.125-200 mM, 50 mM phosphate pH 7.5, 25 °C, anaerobic
purified protein [2] = substrate: c1ccc(C[n+]2ccc(-c3cc[n+](Cc4ccccc4)cc3)cc2)cc1; assay: purified protein; format: biochemical, Escherichia coli; settings: 10 mM formate fixed, BV2+ 0.125-20 mM, 50 mM phosphate pH 7.5, 25 °C, anaerobic, artificial electron acceptor

| Protein | Km (purified protein [1]) [µM] | Km (purified protein [2]) [µM] |
| --- | --- | --- |
| EcFDH-H (Escherichia coli formate dehydrogenase H) (Escherichia coli K-12) (protein, full-length selenocysteine-containing enzyme, C-terminal His6-tag, from pTrc99a-fdhF in E. coli JG-X (MC4100 delta-fdhF delta-iscR) with helper pSU21-selC; holds Mo(MGD)2 and one [4Fe-4S] cluster) MKKVVTVCPYCASGCKINLVVDNGKIVRAEAAQGKTNQGTLCLKGYYGWDFINDTQILTPRLKTPMIRRQRGGKLEPVSWDEALNYVAERLSAIKEKYGPDAIQTTGSSRGTGNETNYVMQKFARAVIGTNNVDCCARVUHGPSVAGLHQSVGNGAMSNAINEIDNTDLVFVFGYNPADSHPIVANHVINAKRNGAKIIVCDPRKIETARIADMHIALKNGSNIALLNAMGHVIIEENLYDKAFVASRTEGFEEYRKIVEGYTPESVEDITGVSASEIRQAARMYAQAKSAAILWGMGVTQFYQGVETVRSLTSLAMLTGNLGKPHAGVNPVRGQNNVQGACDMGALPDTYPGYQYVKDPANREKFAKAWGVESLPAHTGYRISELPHRAAHGEVRAAYIMGEDPLQTDAELSAVRKAFEDLELVIVQDIFMTKTASAADVILPSTSWGEHEGVFTAADRGFQRFFKAVEPKWDLKTDWQIISEIATRMGYPMHYNNTQEIWDELRHLCPDFYGATYEKMGELGFIQWPCRDTSDADQGTSYLFKEKFDTPNGLAQFFTCDWVAPIDKLTDEYPMVLSTVREVGHYSCRSMTGNCAALAALADEPGYAQINTEDAKRLGIEDEALVWVHSRKGKIITRAQVSDRPNKGAIYMTYQWWIGACNELVTENLSPITKTPEYKYCAVRVEPIADQRAAEQYVIDEYNKLKTRLREAALA | 1850 ± 270 | 2750 ± 500 |
| EcFDH-H (Escherichia coli formate dehydrogenase H) (Escherichia coli K-12; K44R) (protein, full-length selenocysteine-containing enzyme, C-terminal His6-tag, from pTrc99a-fdhF in E. coli JG-X (MC4100 delta-fdhF delta-iscR) with helper pSU21-selC; holds Mo(MGD)2 and one [4Fe-4S] cluster) MKKVVTVCPYCASGCKINLVVDNGKIVRAEAAQGKTNQGTLCLRGYYGWDFINDTQILTPRLKTPMIRRQRGGKLEPVSWDEALNYVAERLSAIKEKYGPDAIQTTGSSRGTGNETNYVMQKFARAVIGTNNVDCCARVUHGPSVAGLHQSVGNGAMSNAINEIDNTDLVFVFGYNPADSHPIVANHVINAKRNGAKIIVCDPRKIETARIADMHIALKNGSNIALLNAMGHVIIEENLYDKAFVASRTEGFEEYRKIVEGYTPESVEDITGVSASEIRQAARMYAQAKSAAILWGMGVTQFYQGVETVRSLTSLAMLTGNLGKPHAGVNPVRGQNNVQGACDMGALPDTYPGYQYVKDPANREKFAKAWGVESLPAHTGYRISELPHRAAHGEVRAAYIMGEDPLQTDAELSAVRKAFEDLELVIVQDIFMTKTASAADVILPSTSWGEHEGVFTAADRGFQRFFKAVEPKWDLKTDWQIISEIATRMGYPMHYNNTQEIWDELRHLCPDFYGATYEKMGELGFIQWPCRDTSDADQGTSYLFKEKFDTPNGLAQFFTCDWVAPIDKLTDEYPMVLSTVREVGHYSCRSMTGNCAALAALADEPGYAQINTEDAKRLGIEDEALVWVHSRKGKIITRAQVSDRPNKGAIYMTYQWWIGACNELVTENLSPITKTPEYKYCAVRVEPIADQRAAEQYVIDEYNKLKTRLREAALA | 58610 ± 6150 | 2210 ± 370 |

From article PMC12176258, “Stabilization of the catalytically active structure of a molybdenum‐dependent formate dehydrogenase depends on a highly conserved lysine residue” (The Febs Journal, 2025)
